One protein from article PMC10638095, “Visualization of conformational transition of GRP94 in solution” (Life Science Alliance, 2023) can be followed below.

The data set deals with the molecule itself. Description: SEC-SAXS; inline SEC-SAXS; 25 mM HEPES pH 8.0, 200 mM NaCl, 1 mM TCEP, with or without 1 mM ADP or AMPPNP; 25°C; 10 mg/ml protein, 100 μl injected; scattering fitted with dimer models (EOM, OLIGOMER). Background: In gel filtration, larger molecules generally elute earlier.

B1: mouse GRP94 (22-754) (natural protein, UniProt P08113 22-754, looked up)
chain: DDEVDVDGTVEEDLGKSREGSRTDDEVVQREEEAIQLDGLNASQIRELREKSEKFAFQAEVNRMMKLIINSLYKNKEIFLRELISNASDALDKIRLISLTDENALAGNEELTVKIKCDKEKNLLHVTDTGVGMTREELVKNLGTIAKSGTSEFLNKMTEAQEDGQSTSELIGQFGVGFYSAFLVADKVIVTSKHNNDTQHIWESDSNEFSVIADPRGNTLGRGTTITLVLKEEASDYLELDTIKNLVRKYSQFINFPIYVWSSKTETVEEPLEEDEAAKEEKEESDDEAAVEEEEEEKKPKTKKVEKTVWDWELMNDIKPIWQRPSKEVEEDEYKAFYKSFSKESDDPMAYIHFTAEGEVTFKSILFVPTSAPRGLFDEYGSKKSDYIKLYVRRVFITDDFHDMMPKYLNFVKGVVDSDDLPLNVSRETLQQHKLLKVIRKKLVRKTLDMIKKIADEKYNDTFWKEFGTNIKLGVIEDHSNRTRLAKLLRFQSSHHSTDITSLDQYVERMKEKQDKIYFMAGSSRKEAESSPFVERLLKKGYEVIYLTEPVDEYCIQALPEFDGKRFQNVAKEGVKFDESEKTKESREATEKEFEPLLNWMKDKALKDKIEKAVVSQRLTESPCALVASQYGWSGNMERIMKAQAYQTGKDISTNYYASQKKTFEINPRHPLIRDMLRRIKEDEDDKTVMDLAVVLFETATLRSGYLLPDTKAYGDRIERMLRLSLNIDPEAQ
notes: GRP94 (endoplasmin), mouse, residues 22-754, with the full pre-N domain and the charged linker region preserved; The N-terminal Strep-tag II is followed by a thrombin site; no thrombin cleavage is described; The C-terminal 6xHis tag was removed with TEV protease; also called mGRP94; mGrp94; source: E. coli BL21 (DE3), purified (Histrap HP, TEV cleavage, Hitrap Q HP, second Histrap HP …)
For the protein B1, the binding result was “binds”.
